The text below walks through data of patent EP3467119A1.

The assay deals with recombinant caspase-3 (E. coli KRX lysate, pTS1k:caspase-3(T/S)). Put plainly: cell-based or functional assay.

As for HQ:CBS:HT (5x HQ tag:CBS:HaloTag), the INDUCED luminescence, HisLink purification fraction E1 stood at 2.95e+06; the INDUCED luminescence, HisLink purification fraction E2 was determined as 4.09e+07; the INDUCED luminescence, HisLink purification fraction E3 amounted to 3.29e+06; the INDUCED luminescence, HisLink purification fraction E4 turned out to be 216000. The INDUCED luminescence, HisLink purification fraction E5 was 48100; the INDUCED luminescence, HisLink purification sample HSS came to 1.29e+07; the INDUCED luminescence, HisLink purification sample NSM was determined as 5.82e+06; the INDUCED luminescence, HisLink purification sample WASH is 3.71e+06. For the same substance, the INDUCED luminescence, purified HQ:CBS:HT immobilised on HaloLink plate stood at 662000; the RESPONSE, HisLink purification fraction E1 was found to be 699 fold; the RESPONSE, HisLink purification fraction E2 worked out at 212 fold; the RESPONSE, HisLink purification fraction E3 worked out at 178 fold. Further, the RESPONSE, HisLink purification fraction E4 was 191 fold; the RESPONSE, HisLink purification fraction E5 came to 178 fold; the RESPONSE, HisLink purification sample HSS is 43 fold; the RESPONSE, HisLink purification sample NSM worked out at 33 fold. For the same substance, the RESPONSE, HisLink purification sample WASH stood at 479 fold and the RESPONSE, purified HQ:CBS:HT immobilised on HaloLink plate came to 96 fold.
